According to article PMC9972960:

Legend:
[1] = target: purified vaccine protein with HA from influenza A/PR/8/1934 (H1N1), without the C-terminal trimerization domain (influenza A/PR/8/1934 (H1N1)) (UniProt P03452); experiment: SEC
[2] = target: purified vaccine protein with HA from influenza A/PR/8/1934 (H1N1), without the C-terminal trimerization domain (influenza A/PR/8/1934 (H1N1)) (UniProt P03452); experiment: native gel or EMSA

“purified vaccine protein with HA from influenza A/PR/8/1934 (H1N1), without the C-terminal trimerization domain (from UniProt P03452 18-541)” showed a stoichiometry N [1] of 3 and a stoichiometry N [2] of 3.
